Here are results for two molecules from patent US12552866B2, “Internalizing binding molecules targeting receptors involved in cell proliferation or in cell differentiation” (LinXis B.V., priority 2019, dated 2026).

In assay [1] the test system is primary activated rat hepatic stellate cells (HSCs). The assay is described as follows: Binding (staining) to primary activated rat hepatic stellate cells. Format: cell-based. The following applies: 50 nM, HSCs from BDL rat, 6 days in culture. Here is the method: The cross-reactivity of F11-E8-ABD was further evaluated in binding experiments to primary activated rat hepatic stellate cells (HSCs) by conjugating the construct to Alexa Fluor 488 (FE-A-A488, conjugation method as described in example 9.2). Activated HSCs were obtained from a perfused liver of a cirrhotic bile duct ligated (BDL) rat, the HSCs were isolated using density gradient centrifugation. Cells were kept in culture for 6 days to allow complete activation and then stained with 50 nM FE-A-A488. Activation was determined by an additional staining with alpha-smooth muscle actin (a-SMA).

A further assay addresses T1, rPDGFRB (Rattus norvegicus, UniProt Q05030).
T1 construct: GFP; expressed in transfected cells; host or cells: SCC VII cells
The assay is described as follows: Binding assay on SCC VII cells transfected with rPDGFRB. To be noted: IRDye800CW conjugate, read-out: binding affinity (KD) to rPDGFRB. Here is the method:
(§1) Based on their high affinity and binding to non-overlapping hPDGRB epitopes, VHHs SPO2P, SP12P SP14P and SP26P were selected for the design of biparatopic VHH constructs and produced in a similar way as described in example 6.1. (FIG. 15A). The binding affinities of the biparatopic constructs were determined with an ELISA assay with the periplasm (FIG. 15A). Moreover, based on their high affinity and binding to non-overlapping rPDGRB epitopes, VHHs SP26P and SP28P were selected for the design of a biparatopic VHH construct and produced in a similar way as described in example 6.1. The formed biparatopic SP28P-SP26P was conjugated to IRDye800CW (SP28P-SP26P-IRDye800CW conjugation method as described in example 9.2) and subjected to a binding assay SCC VII cells transfected with hPDGFRB, rPDGFRB or hIGF2R were performed (FIG. 15B). […] In order to create a biparatopic VHH construct which is cross-reactive for hPDGFRB and rPDGFRB, VHH SPO2P binding to hPDGFRB and VHH SPO26P binding to rPDGFRB were selected and the biparatopic construct SPO2P-SP26P was produced in a similar way as described in example 6.1. (FIG. 15C). Construct SPO2P-SP26P was conjugated to IRDye800CW (SP02P-SP26P-IRDye800CW, conjugation method as described in example 9.2) and subjected to bindings assays on SCC VII cells transfected with hPDGFRB, rPDGFRB or hIGF2R were performed (FIG. 15C). […]

For a further assay, the target named is T2, hPDGFRB (Homo sapiens, UniProt P09619).
T2 construct: GFP; expressed in transfected cells; host or cells: SCC VII cells
The assay is described as follows: Binding assay on SCC VII cells transfected with hPDGFRB. To be noted: relative to rPDGFRB. Here is the method: as §1

T1 sequence (Q05030 32-1097): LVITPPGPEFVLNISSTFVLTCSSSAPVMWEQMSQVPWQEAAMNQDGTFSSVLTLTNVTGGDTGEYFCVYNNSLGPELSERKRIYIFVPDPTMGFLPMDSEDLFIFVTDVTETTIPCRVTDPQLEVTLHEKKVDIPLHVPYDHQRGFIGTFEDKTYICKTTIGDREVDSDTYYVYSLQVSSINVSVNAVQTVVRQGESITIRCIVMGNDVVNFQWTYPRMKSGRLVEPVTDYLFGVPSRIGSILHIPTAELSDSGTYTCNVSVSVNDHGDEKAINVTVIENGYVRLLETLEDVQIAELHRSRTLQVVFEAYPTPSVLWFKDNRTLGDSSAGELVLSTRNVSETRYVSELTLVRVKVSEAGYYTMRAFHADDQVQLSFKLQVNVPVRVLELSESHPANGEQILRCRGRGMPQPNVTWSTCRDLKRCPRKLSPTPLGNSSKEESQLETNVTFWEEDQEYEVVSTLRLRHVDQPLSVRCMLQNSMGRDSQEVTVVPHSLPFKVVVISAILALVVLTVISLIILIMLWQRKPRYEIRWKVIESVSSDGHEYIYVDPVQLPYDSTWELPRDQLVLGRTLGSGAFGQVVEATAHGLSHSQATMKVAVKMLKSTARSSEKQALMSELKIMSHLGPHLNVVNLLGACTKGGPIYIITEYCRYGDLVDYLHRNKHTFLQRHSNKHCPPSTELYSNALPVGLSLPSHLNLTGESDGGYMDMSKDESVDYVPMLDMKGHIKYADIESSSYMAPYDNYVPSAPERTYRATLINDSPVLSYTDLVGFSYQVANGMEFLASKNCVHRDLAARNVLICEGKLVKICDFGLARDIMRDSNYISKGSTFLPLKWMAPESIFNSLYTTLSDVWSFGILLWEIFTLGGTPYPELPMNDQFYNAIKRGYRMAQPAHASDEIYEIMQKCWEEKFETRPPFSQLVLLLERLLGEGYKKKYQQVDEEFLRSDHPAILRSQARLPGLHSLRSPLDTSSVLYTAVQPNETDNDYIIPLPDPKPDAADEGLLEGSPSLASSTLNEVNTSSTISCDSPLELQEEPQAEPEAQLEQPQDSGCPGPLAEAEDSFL
T2 sequence (P09619 33-1106): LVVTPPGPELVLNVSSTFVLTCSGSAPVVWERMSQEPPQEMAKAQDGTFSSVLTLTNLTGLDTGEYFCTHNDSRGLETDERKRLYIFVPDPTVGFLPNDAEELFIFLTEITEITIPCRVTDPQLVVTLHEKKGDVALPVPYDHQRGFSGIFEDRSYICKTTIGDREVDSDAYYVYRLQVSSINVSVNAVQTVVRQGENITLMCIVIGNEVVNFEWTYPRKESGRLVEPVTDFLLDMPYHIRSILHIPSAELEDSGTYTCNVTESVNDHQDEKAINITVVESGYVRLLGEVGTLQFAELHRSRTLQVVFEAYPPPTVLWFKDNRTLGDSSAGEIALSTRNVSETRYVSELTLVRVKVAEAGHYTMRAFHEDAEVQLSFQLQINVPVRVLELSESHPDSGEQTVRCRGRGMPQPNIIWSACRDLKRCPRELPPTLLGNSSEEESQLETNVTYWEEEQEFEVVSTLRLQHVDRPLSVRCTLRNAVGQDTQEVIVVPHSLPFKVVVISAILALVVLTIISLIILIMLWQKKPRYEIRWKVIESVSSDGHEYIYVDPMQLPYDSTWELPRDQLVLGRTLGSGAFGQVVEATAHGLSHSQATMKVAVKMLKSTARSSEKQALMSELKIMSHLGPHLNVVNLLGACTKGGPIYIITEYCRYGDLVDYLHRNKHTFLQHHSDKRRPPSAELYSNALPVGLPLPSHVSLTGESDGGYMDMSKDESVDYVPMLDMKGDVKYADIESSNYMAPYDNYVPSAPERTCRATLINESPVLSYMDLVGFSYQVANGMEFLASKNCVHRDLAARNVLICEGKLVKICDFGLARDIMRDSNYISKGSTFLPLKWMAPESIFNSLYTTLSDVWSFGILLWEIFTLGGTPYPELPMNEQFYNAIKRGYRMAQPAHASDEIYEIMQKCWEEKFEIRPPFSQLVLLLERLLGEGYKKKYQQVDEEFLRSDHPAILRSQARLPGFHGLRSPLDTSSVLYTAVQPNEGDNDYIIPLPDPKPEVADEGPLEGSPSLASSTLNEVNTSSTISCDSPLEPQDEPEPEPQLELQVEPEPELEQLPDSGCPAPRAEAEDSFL

B1: FE-A-A488: 13F11-13E8-ABD conjugated to Alexa Fluor 488 (conjugate)
chain: EVQLVESGGRLVQPGDSLRLSCAASGRTFSDNAMGWFRQAPGKERRFVAGISWAGGSTYYSDSVKGRFTISRDNAKNTVYLQMNSLKPEDTAVYYCAAGLRAWVQRMPKDYNYWGQGTQVTVSSGGGGSGGGGSGGGGSEVQLVESGGGLVQAGGSLRLSCAASRSISPMGWYRQAPGKQRELVAIMPSSGPPIYADSVQGRFTISRDNAKNTVYLQMNSLKPEDTAVYYCNVGGGYWGQGTQVTVSS
modifications: left off: large carriers; small tags and cut ends
Turning to B1, the “binding to activated rat HSCs” value in assay [1] is listed as “binds to rat HSCs”.

B2: SP28P-SP26P-IRDye800CW: biparatopic SP28P-SP26P conjugated to IRDye800CW (conjugate)
chain: EVQLVESGGGLVQAGGSLRLSCAASGSIVSFNGINWYRQAPGKQREWVGGITQGGNTMYADSVRGRFTISRDNTKNTMYLQMNSLKPEDTAVYYCRRPPVASWGQGTQVTVSSGGGGSGGGGSGGGGSEVQLVESGGGLVQAGGSLRLSCAASGRSFSSSVMGWFRQTPGKEREFVAATRWTAASTHYADSVKGRFTISRDHAENAVFLQMNSLKPEDTAVYYCAAGNYLDTAQYRYNYWGQGTQVTVSS
modifications: left off: small tags and cut ends
The term Kd denotes the concentration at which binding is half-saturated. As for B2, the Kd with rPDGFRB is less than 1 nM. The “binding affinity to hPDGFRB” value with hPDGFRB is “a few orders of magnitude lower”.
